Assay results: patent US11174322B2, “Antibodies and peptides to treat HCMV related diseases” (priority 2017, dated 2021)

B1: pUL56 depleted of its W671-F680 fragment (protein)
chain: MEMNLLQKLCVVCSKCNEYAMELECLKYCDPNVLLAESTPFKRNAAAIVYLYRKIYPEVVAQNRTQSSLLTLYLEMLLKALHEDTALLDRALMAYSRQPDRAAFYRTVLRLDRCDRHHTVELQFTDNVRFSVSLATLNDIERFLCKMNYVYGILAPEAGLEVCAQLLELLRRLCGISPVARQEVYVEGTTCAQCYEELTIIPNQGRSLNKRLQGLLCNHIAVHRPSSQSDVNIQTVEQDLLDLTTRIPHLAGVLSALKSLFSSSSAYHSYIQEAEEALREYNLFTDIPERIYSLSDFTYWSRTSEVIVKRVGITIQQLNVYHQLCRALMNGISRHLYGEDVEDIFVLGEKALDGEERMFVGSVFAAPNRIIDLITSLSIQAFEDNPVFNKLHESNEMYTKIKHILEEIRRPLPDGTGGDGPEGEAIHLRGREAMSGTGTTLMTASNSSNSSTHSQRNNGGGGRARGGGKKAVGGGANGQDGDGSENGLRVRNCDEHEALDLVDARSRIHNVTREVNVRKRAYLQKVSEVGYGKVIRCIKTQERLTSKLIDVNLVGPLCLDFISKLMNGFLYRSQYHQDQDVVDVGDQFTYDEHLYVVNNLIHKSLPVESLPLLGQQIYELCNGPLFTHCTDRYPLSHNVDMAYACDNAGVLPHVKDDLVKCAEGTVYPSENFSDCQDLNVLQKEMWMHVRELVLSVALYNETFGKQLSIACLRDELHPDRDVILTYNKEWPLLLRHEGNLYKSKDLYLLLYRHLSRPDESGDVPTAPVAKPSTLTAAAAVSGAFREPDRPWLPSPYPSSSTAGVSRRVRATRKRPRRASSLLDLARDEHGIQDLVPGSLR
modifications: left off: small tags and cut ends
B2: 3xHA-pUL56: full-length amino-terminal 3xHA-tagged pUL56, HCMV large terminase subunit, purified from transfected HEK293 (protein)
chain: MEMNLLQKLCVVCSKCNEYAMELECLKYCDPNVLLAESTPFKRNAAAIVYLYRKIYPEVVAQNRTQSSLLTLYLEMLLKALHEDTALLDRALMAYSRQPDRAAFYRTVLRLDRCDRHHTVELQFTDNVRFSVSLATLNDIERFLCKMNYVYGILAPEAGLEVCAQLLELLRRLCGISPVARQEVYVEGTTCAQCYEELTIIPNQGRSLNKRLQGLLCNHIAVHRPSSQSDVNIQTVEQDLLDLTTRIPHLAGVLSALKSLFSSSSAYHSYIQEAEEALREYNLFTDIPERIYSLSDFTYWSRTSEVIVKRVGITIQQLNVYHQLCRALMNGISRHLYGEDVEDIFVLGEKALDGEERMFVGSVFAAPNRIIDLITSLSIQAFEDNPVFNKLHESNEMYTKIKHILEEIRRPLPDGTGGDGPEGEAIHLRGREAMSGTGTTLMTASNSSNSSTHSQRNNGGGGRARGGGKKAVGGGANGQDGDGSENGLRVRNCDEHEALDLVDARSRIHNVTREVNVRKRAYLQKVSEVGYGKVIRCIKTQERLTSKLIDVNLVGPLCLDFISKLMNGFLYRSQYHQDQDVVDVGDQFTYDEHLYVVNNLIHKSLPVESLPLLGQQIYELCNGPLFTHCTDRYPLSHNVDMAYACDNAGVLPHVKDDLVKCAEGTVYPSEWMVVKYMGFFNFSDCQDLNVLQKEMWMHVRELVLSVALYNETFGKQLSIACLRDELHPDRDVILTYNKEWPLLLRHEGNLYKSKDLYLLLYRHLSRPDESGDVPTAPVAKPSTLTAAAAVSGAFREPDRPWLPSPYPSSSTAGVSRRVRATRKRPRRASSLLDLARDEHGIQDLVPGSLR
modifications: left off: small tags and cut ends
notes: full-length amino-terminal 3xHA-tagged pUL56, HCMV large terminase subunit, purified from transfected HEK293

Molecular target: T1, full-length pUL89 (His-pUL89) (Human cytomegalovirus, UniProt P16732)
T1 construct: made in house; host or cells: HEK293
Assay: Alpha assay (Amplified Luminescent Proximity Homogeneous Assay) of the pUL56/pUL89 protein-protein interaction
Assay type: binding, human cytomegalovirus (HCMV), AD169
Description: FIG. 2: Determination of pUL56 binding domains for the interaction with pUL89 Alpha assay results. The Alpha assay for the binding of full-length pUL89 (His-pUL89, 1.5E+03 nM) was performed with 5E+02 nM wild-type pUL56 (HA-pUL56) or a deletion mutant of pUL56 (HA-pUL56 Del W671-F680). As a negative control, proteins were used alone and a reaction was performed without proteins (mock). Two measures for each reaction were performed in duplicate.
Alpha (Amplified Luminescent Proximity Homogeneous Assay) experiments were conducted according to the manufacturer's protocol (PerkinElmer, USA). Five μL of transfected MRC-5 lysate with HCMV-BAC is first disposed in wells of a 96-well AlphaPlate. The final concentration of each proteins was optimized to obtain the best value of interaction. Ten μL of each purified protein were combined (to give a final assay concentration of 500 nM of 3xHA-pUL56 and 1.5 μM of 6xHis-pUL89). Ten μL and 15 μL of 10 mg/mL of donor beads and acceptor beads, respectively, were added and incubated for 1 hour. Plates were read on a PerkinElmer EnVision™ plate reader using an excitation wavelength of 680 nm and emission detection was set at 615 nm.
HEK293 were transfected with SC784 and pCI-neo His-89 expression plasmids and protein-protein interactions were carried out by the Alpha assay. This technology represents a powerful method to highlight protein-protein interactions (Ullman et al., 1994) (Waller et al., 2010). […]
Alpha assay needs both acceptor and donor beads. […] In the absence of a specific biological interaction between proteins, singlet molecules produced by the Donor bead cannot be detected beyond 200 nm from the Acceptor bead (data not shown). […] Alpha assays with 3xHA-pUL56 and 6xHis-pUL89 results in the production of over 9,000 relative light units (RLU), over two-fold more than negative controls (3xHA-pUL56 or His-pUL89) (FIG. 2). pUL56 depleted of its W671-F680 fragment was in turn soaked with pUL89-WT and their affinity assessed by Alpha analysis. […]

T1 sequence (P16732 whole entry): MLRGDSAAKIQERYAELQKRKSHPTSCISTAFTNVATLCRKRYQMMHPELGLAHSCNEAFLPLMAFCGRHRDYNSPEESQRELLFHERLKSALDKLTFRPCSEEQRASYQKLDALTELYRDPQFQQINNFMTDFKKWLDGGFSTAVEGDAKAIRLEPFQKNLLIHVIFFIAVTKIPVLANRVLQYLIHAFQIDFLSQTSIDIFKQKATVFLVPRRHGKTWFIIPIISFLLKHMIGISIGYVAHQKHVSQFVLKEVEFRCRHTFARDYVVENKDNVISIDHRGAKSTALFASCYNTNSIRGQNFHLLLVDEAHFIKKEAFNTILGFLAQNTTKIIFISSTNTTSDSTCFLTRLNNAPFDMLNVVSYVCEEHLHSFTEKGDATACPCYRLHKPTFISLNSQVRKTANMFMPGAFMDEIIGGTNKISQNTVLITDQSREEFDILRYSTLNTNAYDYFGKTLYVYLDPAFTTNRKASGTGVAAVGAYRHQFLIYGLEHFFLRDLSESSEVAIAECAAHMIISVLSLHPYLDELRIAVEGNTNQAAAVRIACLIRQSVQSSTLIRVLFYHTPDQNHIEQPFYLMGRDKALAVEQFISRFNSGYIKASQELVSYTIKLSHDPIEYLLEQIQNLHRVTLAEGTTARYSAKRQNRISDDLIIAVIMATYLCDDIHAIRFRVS

| Molecule | decrease of the interaction signal with pUL89-WT (pUL56 deletion mutant versus wild-type pUL56, FIG. 2) | Alpha assay signal relative to negative controls (3xHA-pUL56 or His-pUL89 alone) (500 nM 3xHA-pUL56 with 1.5 μM 6xHis-pUL89) | Alpha assay signal (light production at 615 nm) (500 nM 3xHA-pUL56 with 1.5 μM 6xHis-pUL89, purified proteins from HEK293) |
| --- | --- | --- | --- |
| B1 | 50% | – | – |
| B2 | – | over two-fold | over 9,000 relative light units (RLU) |
